Experiment: soluble on expression in E. coli; label from the status in PepcDB or PDB records

Sequence	soluble on expression in E. coli
MAMAKARKPREALLWALSDLEENDFKKLKFYLRDMTLSEGQPPLARGELEGLIPVDLAELLISKYGEKEAVKVVLKGLKVMNLLELVDQLSHICLHDYREVYREHVRCLEEWQEAGVNGRYNQVLLVAKPSSESPESLACPFPEQELESVTVEALFDSGEKPSLAPSLVVLQGSAGTGKTTLARKMVLDWATGTLYPGRFDYVFYVSCKEVVLLLESKLEQLLFWCCGDNQAPVTEILRQPERLLFILDGFDELQRPFEEKLKKRGLSPKESLLHLLIRRHTLPTCSLLITTRPLALRNLEPLLKQARHVHILGFSEEERARYFSSYFTDEKQADRAFDIVQKNDILYKACQVPGICWVVCSWLQGQMERGKVVLETPRNSTDIFMAYVSTFLPPDDDGGCSELSRHRVLRSLCSLAAEGIQHQRFLFEEAELRKHNLDGPRLAAFLSSNDYQLGLAIKKFYSFRHISFQDFFHAMSYLVKEDQSRLGKESRREVQRLLEVKEQEGNDEMTLTMQFLLDISKKDSFSNLELKFCFRISPCLAQDLKHFKEQMESMKHNRTWDLEFSLYEAKIKNLVKVKFLKGKSEERMKETLP	soluble
MDRRSQILTIAGHLFSQRGYHATSMRELARHLNLQGGSLYAHIQSKEELLLEVVRQAAERFQKVLEELPSGDPVTRMKALVKGHLRVIAEELPRATVFFHEWKHLSPPLLEEAKALRRRYEEGVQAVVEEGVRAGVFRVENVRLATLFVLSALNWTYQWYRPDGPLSLEALAEAYAELVLKALGVAASPEGERREEGGEDGEA	soluble
MGSDKIHHHHHHMPAKIIDKIIEEIDKLPSPNVVVQRIIAVCSKPDASSTEVANTLMMDASLSARVLKLANSAYYGVPRKITTLSEAVMILGFKTVRNLALSVFTYDMVFKNSSSGIDREKLWEHFIASAIASETVAETMGYPLKEEIFIAGLLHDLGKVVYDLLFSDILETEAKIAQKTKKNLIDIEEELGIPPHSEVGAKLLRKWNFPDLLVLSAEFHHNVEGNPNELFVNQVSMVHIGDVIANLMMKGASLSWGDPKLSPFALNVLKVKPKTFLRILDKSKEKYNKAQEFLQID	not soluble
MAGFEIQRVESKFFDLDDIIAKSDSTSCTFEIGDLNPDFFQEMLGVSKPTQNADGYGVDAPYWLLESVRSSFSIQLPKAYSVNMQNVLNADSKKLNLSGLQQHFYGNGMQLCRLMKGENPDGALSLARCLVSTLTQRLGEIVSTATHLQSKGEKFDSLETKVFLEGKRCKEDIDTWLRQDNKCSSKKRKRLSL	not soluble
MISIPKDEFQQIFVKDLMISSEKVAHVQIGNGLEHALLVLVKSGYSAIPVLDPMYKLHGLISTAMILDGILGLERIEFERLEEMKVEQVMKQDIPVLKLEDSFAKALEMTIDHPFICAVNEDGYFEGILTRRAILKLLNKKVRQHNR	not soluble
MGSDKIHHHHHHMASRLPPLNALRAFDASARQLSFTRAAEELFVTQAAISHQIKSLEDHLGIKLFMRKNRALLLTEEGQSYYLDIKDIFTSLHEATERLLARGAKGAITVSSQASFAIQWLVPRLTAFNSLHQDIDVRIKAVDQPENSLTEDVDIAIYYGRGRWPNIHADKLHTEYLIPVCSPLLVQENAANGKPPLLTLEDLSEHTLLHDTSRKDWKRWFKQVGVKGANVNHGPIFSHSAMVLQAALHGQGIALAYSVLAKPDIDSGRLVCPFNDVLVSKNAYFIVCRENQKDIGKITAFREWMLDMVEAEQAQITDGQIS	not soluble
MAHHHHHHMANAELVDAGCFITQMNELLLIDPLYINCTMTNYCNSYISGKEKLLPRERLNGIYFKNAKPGLWSSFAIRENNQACLKKTSNQETETDAENRNNNNSYNNVRNEMVLSFICFNNTEYMHEYLTVEKVDKLKWEKVKPNESHLRVGQADQYNSTVNIEYKNEKTGIFHHNKNELLPLENYFTNVLTIESGQVGLFCMESIKHSADLLFQKHEMNNISNKEELDNLFNQNMNDLYPWFEKICNLTLSSSVAVVDFIDMPIGCVCLSSSDCVVNYLCEVVRDEVTDEVWAIRVNFLSPLK	soluble
MFISDKSRPTDFYKDDHHNSSTTSTTRDMMIDVLTTTNESVDLQSHHHHNHHNHHLHQSQPQQQILLGESSGEDHEVKAPKKRAETWVQDETRSLIMFRRGMDGLFNTSKSNKHLWEQISSKMREKGFDRSPTMCTDKWRNLLKEFKKAKHHDRGNGSAKMSYYKEIEDILRERSKKVTPPQYNKSPNTPPTSAKVDSFMQFTDKGFDDTSISFGSVEANGRPALNLERRLDHDGHPLAITTAVDAVAANGVTPWNWRETPGNGDDSHGQPFGGRVITVKFGDYTRRIGVDGSAEAIKEVIRSAFGLRTRRAFWLEDEDQIIRCLDRDMPLGNYLLRLDDVCKTHLAGLAIRVCHYDESNQLPVHSEEKIFYTEEDYREFLARQGWSSLQVDGFRNIENMDDLQPGAVYRGVR	soluble
MNDPLDSLSNDEFEIIETFDPETEDREDQWSIQQSIRIEPISIQMPNTLQSQRAPSPVGSKAPESLKDEDPDRTPEASIVETPLLTETLKEDRTPMSTPLASLVNSSQSPEFTLQNMSIVSESECSNNSSLVNVADVESTEIALRTSLLLVSELKSQLQAAKMSESTLLKSNSNHEIEENKKLSEKMEVMKNEFELKMQESAASVEKVIQEKDSAIEQLKVQLAQSQQVAELWKQGAEKNSNAQYSDSKTTIDRLLEENSKLRNLVDEEVARRLEESERRKLAEDQLKHARGGSVFDPPASFVASQLAERTTYSLNLEHELITLRKELEETKEALKKSVEESSNKDEIVSALHEDQQESTRMLASNEQVINSLKQKCRQLGVLEDFSS	soluble
MTRPLIVAAVIGSALAWHGSAQAQHSQAVAPAEPCTPVVLIERTGTCYAQVDPRFVTTLYFPRMVTSAVSSDERYFRASIVDDSVIVRPARDIDADALGNLSITAGEMKVSIMLGVAGHSSEVLPQIDFRALSEAEVFDARVAAEAERLHQDVKREYERRHRELEGEVTREATQLVGERLLQRHEPVRIDAIARNDDNVIVRVERGVWVGHELYLFFTVQNRSGTPYRVTHVGVFEESEHRAVADAGRAGQVEFDSAAPLVAGLLGTVRVDQFGRGVVHVRDARGAAGRRMTLRVSEERGERPVSVGGLSWR	not soluble
MSLKALGLSKSTYYHWKHYQTSRHDKQDTILKSQIFEIWKNNYKAYGYPRITIAMRRLGVVIGPNRVYRLMQELGIRSLMGRRFKKPGTHVDYSQRPNLIKNHPIGTIWRADITYLELRPGTWVYLSTIFDQASKQIIAFNIGKEMASKLIIKTLLQALSRASKPTFLHSDMGSQYTSIAYEGLLKRHLIRHSYSKQGYPYDNGPLEAFHSLLKREFIFQTRFTSFEDLVLRVENYINWYNTERIRINEGHHHHHH	not soluble
MGSDKIHHHHHHEHKDLCYDHPHFATVRVVFDWTKISNHDKPEGMRVVFYPTDDESNTWIFDFPGGEDGEVELPENDYRVICFNYDTDGMVWKENGSYTLFTADTRDVRSPDNQTMAVTPPWLCGDHIDRVILKDIPEGSTKIIRLTPVNMVCHYTYEVNGIRGLDRVADLRAALSGMSGSLNMSGDSLPADLSESLLFDGMVSRNQIIGGFYTFGHSALEGEPNVFRLYLKNRSGSMSVLEQDVSDQVHDVPVAGHIGDVHLVLNFDYEVPSEPGSGGPGFDVDVDDWDDVNVDIVL	not soluble
MGSDKIHHHHHHMAKLETFYPIVATPKRAGYKEYLPSAVLTGYIRCFWEADDKNFPGNNLVVPDLCADIIFTIDSKTGLVTDAIFVGVSDAPFESDDESNTELFAVRFYAWSLFLFVEQDLTGSMNRVKEPEEMFAGFVSFFQERFAEMTTNMERIALLEEFLLRKLMMLGKQVHPDFLNGIDKLLQNPNQLALGAVSVRQLERLFQKHMGLAPKQTAKLIRFQKVLQALYENPSVPGAELAYLHGFTDQAHLIKQFKRYSNHTPEEMKQIFLQNVANIQ	not soluble
MSLADRLTIGEFSRITHLSIRMLRRYHEQDLLVPAEVDPDTGYRYYSPAQIRPALTVRRFRDLDLPLADLRRFLAAESADGPDDGTAQQVVAAHLRRLEDRLGRTQRAVEVLRELLDPEAERAVTLEELPARRVLAVTLDVPEGAGLDWYDEAMCDVDSAAGERSVLPPGGRYEHTLFTEGHGRATVYVPFEAPLPPEMPGRVRELHLPRRTAAVATHQGRHDDLDLTYGAVGSFAARNDLRSQDLVEEVYLVGPRDTDRPELWRTLVAWLIAPENEGHHHHHH	soluble
MTIRINNISLDINEDLSLLKNKVAKKLRMSKDEIGDIKIIKESLDARKKNLIKFNYCINIEHEDEEKIVARLNDKDVKIDKVNYDFDFNFGEKKLQHRPVVIGLGPAGLFAALLLAKKGFNPIVFERGEDVDSRTKTVEEFWRTGELNPESNVQFGEGGAGAFSDGKLTTRIKDTRCDYVLDALVRNGAPEEIIYKGKPHVGTDILKNVVKNIREEIKRHGGEVHFNSRFEGIIKKDNKLKGIKVNGEEVPCEVAILALGHSSRDTYEMLFNEGVFMKQKPFAIGVRIEHPQEIINLSQYGEKYANHPRLKAAEYRLAYQSKTLDRAVYSFCMCPGGVVVNASSEEKRLCVNGMSYHARDKENANSALVVTVGPNDFGGDHPLEGMKFQRHYEELAFKLGGGNYNTPVQLVGDFMKDRVTTKLGKVNPSVLSNGYRFEDLRKCLPSYVIDGLKEGITDFDRKIKGFGHSDSVLTGIETRTSAPVRIERNEKLQSISLEGLYPAGEGAGFAGGIVSAAVDGLKVAENIMKEYRVLEHHHHHH	not soluble
MFAHPANTSAASDNVSKAKLLKMLNAERKENASKDQLIESLKNQLASGGSQKIMEFYRTSVEDLQTKVMRQETIIMEQSKTIEMLSIERSKSVKVHEDQINEMQEVMDKKVKQLEENYEERLKESGNESTASFDKESRDDSLEDFVEVSINEILETAESKRKLKERINHMETHCMTMLKETMEDNKLYSAQLKDQKKQFEVLQNEKAQWEKKEIQQTMELENLRLRLRDIVSLENLIL	not soluble
MDGFQLGNNSPKEITVFCDESRPEALRAASITQRYLCIGSIWVDRERVREVNEEIRALQIKYSKMGEVKWGKVSPSSIQFNCELIDLFFDERFNLQFRAIVVDNQKVDLSYHNNDQELGFYKFYYQMLKHKLINGCSYRIYCDLKTNKMRGRASTLEHYLQTYCLGSVEMVQLLPSNDLPLMQLTDLLLGAVSTKFNFRIPKSPAKNEVISTIERHIGHQIQPTRKNEQKFNVFCIEPGMGR	not soluble
GSHMVVELAYTDPDRAVDWLVRVFGFRLLLRQPAIGTIRHADLDTGGGIVMVRRTGEPYTVSCAGGHTCKQVIVWVSDVDEHFMRSTAAGADIVQPLQDKPWGLRQYLVRDLEGHLWEFTRHLRDVPPREWGAVAMT	soluble
MDIKELHVKTVKRGENVTMECSMSKVTNKNNLAWYRQSFGKVPQYFVRYYSSNSGYKFAEGFKDSRFSMTVNDQKFDLNIIGAREDDGGEYFCGEVEGIIIKFTSGTRLQFEGSNEGSKSSDGEGSSCPDQMHVLVW	soluble
MAHHHHHHMNKNFAQILEDFISDGSRKHRGHGDDGANEENVPHFINQDGSNLFNDDIGKKFEKKNFFKYTEYSLSSLYMSDNQIPLEEDPKFETFINVITKASDVNNEYKWVDDYFKFEVKEEMNILTPRSQDRDFLFRKYLQPNQLKNICLLRKYEQAAISKTPEKNKVDAKIVSEYIVHDSYRQIMKALNFKWSHRIFTKARIFHSKYGNSDHIVILVMRHYKDENFLHPLFHDRALVQIKSYLNDNKHADMTQKNLLNYTEVFKPYVSLRKVDSNFVEQIKDRYYGAF	soluble
GPGSMEGSGSYRLKRGRDELSTPPASGNFPASDQRGTQNLLRCPWCPNGHLMRPAAKSPTNNSKEEGTHLCTNRSSCPCGAVIDQDRTMSFSCIDGSDLIRNFYNALDDHLETCQIVSQTPSQRDWAPWSIVAERSILFADPSNRKQRHSVDCSPPSLSPDPKGPVFYFLHCDNCGEKEFVC	not soluble
